Measured values as given in article PMC3290749 (Oncogene, 2011).

Biological target: IgB-1 (UniProt P00533 25-645)
Assay: ELISA

B1: heparin-binding EGF like growth factor (ligand, UniProt Q99075 63-148, looked up)
chain: DLQEADLDLLRVTLSSKPQALATPNKEEHGKRKKKGKGLGKKRDPCLRKYKDFCIHGECKYVKELRAPSCICHPGYHGERCHGLSL
B1: binds.
